B1: 3bG4: anti-tau clone, SEQ ID NO: 425 (protein)
scFv: QVQLQESGPSLVKPSQTLSLTCTISGFSLISNGVGWVRQAPGKVPEWVGDIASSGKAYSNPALKSRLSITRDTSKSQVSLSLRSVTTEDTAVYYCVRCRDGGVTYGYDIDYWGPGLLVTVSSEGKSSGASGESKVDDQAVLTQPSSVSKSLGQSVSITCSGSTSNVGSGNDVSWFQQVPGSAPKLLFYGATNRASGVPDRFSGSRSGNTATLTITSLQAEDEADYYCGSYDSNSGGIFGSGTRLTVLG
modifications: 3bG4 amino acid sequence
B2: 3aH6: anti-tau clone, SEQ ID NO: 423 (protein)
scFv: QVQLQESGPSLVKPSQTLSLTCTVSGFSLSSNGVGWVRQAPGKVPEWLGDISSVGKKYANPALKSRLSFTRDTSKSQVSLSLSSVTTEDTAVYYCVKCRDGGVTYGYDIDYWGPGLLVTASSEGKSSGASGESKVDDQAVVTQPSSVSGSLGQSVSITCSGSSGNVGYGDYVSWFQQFHGSAPKLLIYGATNLASGVPARFSGSRSGNTATLTISSLHAEDEADYYCASYDSSSGGVFGSGTRLTVLG
modifications: 3aH6 amino acid sequence
B3: 3aG3: anti-tau clone, SEQ ID NO: 424 (protein)
scFv: QVQLQESGPSLVKPSQTLSLTCTVSGFSLSSNGVGWVRQAPGKVPEWVGDISSSGKAYANPALKSRLSITRDTAKTQVFLSLSSVTTEDTAVYYCVRCRDGGVSYGYDIDYWGPGLLVTVSSEGKSSGASGESKVDDQAVLTQPPSVSGSPGQRVSITCSGSSSNIGGGNYLSWFQQVPGSAPKLLIYGATSRASGVPDRFSGSRSGNTATLTISSLQAEDEADYYCASFDTSSGGIFGAGTRLTVLG
modifications: 3aG3 amino acid sequence
B4: 3bF4: anti-tau clone, SEQ ID NO: 421 (protein)
scFv: QVQLQESGPSLVKPSQTLSLTCTVSGFSLSSNGVGWVRQAPGKVPEWLGDISSVGKKYANPALKSRLSFTRDTSKSQVSLSLSSVTTEDTAVYYCVKCRDGGVTYGYDIDYWGPGLLVTVSSEGKSSGASGESKVDDQAVLTQPSSVSKSTGQTVSITCSGSSSNVGLRNYVTWFQQVPGSAPKLLIYGATSRASGIPDRFSGSRSGNTATLIISSLQAEDEADYYCASADTNDGGVFGSGTRLTVLG
modifications: 3bF4 amino acid sequence
B5: 3aA6: anti-tau clone, sequence in b345 (protein)
scFv: QVRLQESGSSLVKPSQTLSLVCTVSGFPLTSNAVGWVRQAPGKAPEWLGLIDIDGDTAYNPALESRLSITRDTSKSQVSLSLSSVAIEDTAVYYCARHYDKWGYADSIDYWGPGLLVTVSSEGKSSGASGESKVDDQALLTQPSSVFGSLGQRVSITCSGSSSNVGYGDYVGWYQQVPGSAPKLLIYDATTRASGVPDRFSGSRSGNTATLTISSLQAEDEADYYCASYQNERSGVFGSGTRLTVLG
modifications: 3aA6 amino acid sequence
B6: 3aB7: anti-tau clone, SEQ ID NO: 420 (protein)
scFv: QVQLQESGPSLVKPSQTLSLTCTVSGFSLTSNGVGWVRQAPGKVPEWVGDKSSAGKTYGNPALKSRLSITRDTSKSQVSLSLSSVTTEDTAVYYCVRCRDGGVTYGYDVDYWGPGLLVTVSSEGKSSGASGESKVDDQAVLTQPSSVSKSLGQSVSITCSGSSSNVGYGDVVSWFQQFPGSAPKLLIFGTTTRASGVPDRFSGSRSGNAATLTINSLQAEDEADYYCASFDSDSGGIAGSGTRLTVLG
modifications: 3aB7 amino acid sequence
B7: CE3: anti-tau clone, SEQ ID NO: 367 (protein)
scFv: QVRLQESGPSLVKPSQTLSVTCTVSGFSLISNAVGWVRQAPGKVPESLAGCSSDGKCYYNSALKSRLDITRDTSKNQISLSLSSVTTDDAAVYYCTRGYYPVYGYDYLGTIDYWGPGLLVTVSSEGKSSGASGESKVDDQAVLTQPSSVSGSLGQRVSITCSGSSSNVGRNDVAWFQQLPGSGLRTIIYGTTSRPSGIPDRFSGSKSGVTATLTIDSLQAEDEADYFCASGDSSAINDIFGSGTRLTVLG
modifications: CE3 amino acid sequence
B8: MD9/MoD9: anti-tau clone, SEQ ID NO: 373 (protein)
scFv: QVRLQESGPSLVKSSQTLSLTCTVSGFSLTRESIAWVRQAPGKVPEWLGGVGIDGTSYYSPALKSRLSITRDTSKSQASLSLSSVATEDTAMYYCARNYIDFEYWGPGLLVTVSSEGKSSGASGESKVDDQAVLTQLSSVSGSLGQRISITCSGSSSNVGIYDVSWFQQLPGSGLRTVIYGTNNRPSGVPDRFSGSRSGNTATLTISSLQSEDEAIYYCAAGDSSTIAVFGSGTRLTVLG
modifications: MD9 amino acid sequence
B9: 3bD11 (protein)
scFv: RVRLQGSGPSLVKPSQTLSLTCTVSGFSFDSYYVGWVRQAPGKALEWLGNIYSTGRAFYNPALKSRLSITRDTSKSQVSLSVSSVTIEDTALYYCVRGSYYHGGGNGMVDFFDYWSPGLLVTVSSEGKSSGASGESKVDDQVVRTQPSSVSGSLGQRVSITCSGSSSNVGYGNYVGWFQQVPGSAPKLLIYAATSRASGVPDRFSGSRSGNTATLTIDSLQAEDEADYYCSSYQRGNTGVFGSGTRLTVLG

The values that follow come from US12624096B2, “Anti-tau antibodies and methods of use thereof” (GTInvent Limited, priority 2020, dated 2026).

htau40, sequence (P10636 1-441 isoform P10636-8): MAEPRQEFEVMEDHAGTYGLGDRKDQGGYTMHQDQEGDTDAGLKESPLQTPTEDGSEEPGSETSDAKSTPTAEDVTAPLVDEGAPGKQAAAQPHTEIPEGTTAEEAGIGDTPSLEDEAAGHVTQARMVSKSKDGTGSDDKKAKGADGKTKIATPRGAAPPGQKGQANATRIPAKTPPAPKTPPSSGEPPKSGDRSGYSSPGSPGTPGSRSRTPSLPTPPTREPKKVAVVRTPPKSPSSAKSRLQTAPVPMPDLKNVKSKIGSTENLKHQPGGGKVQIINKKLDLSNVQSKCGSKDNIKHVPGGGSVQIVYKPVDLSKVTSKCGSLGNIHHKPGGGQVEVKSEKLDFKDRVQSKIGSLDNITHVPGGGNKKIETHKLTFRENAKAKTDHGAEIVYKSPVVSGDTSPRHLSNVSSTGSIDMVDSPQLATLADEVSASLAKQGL

For the first experiment, the target named is hT40 (Homo sapiens, UniProt P10636). Nature of the experiment: Biacore X100 SPR, scAb captured via anti-HuCk, hT40 as analyte. The class given is binding. To be noted: '3a' and '3b' scAbs, Table 25, hT40. As to the method: Surface plasmon resonance (SPR) is widely regarded as the gold standard for real time measurement of protein-protein interactions such as antibody binding. All SPR experiments were carried out using a Biacore X100 machine and HBS EP+ running buffer (GE Healthcare). A ‘capture’ method was followed for affinity measurements, where an anti-human constant kappa chain (HuCk) antibody was conjugated to the surface of a CM5 sensor chip using an amine coupling kit and scAb molecules were immobilised via their HuCk domain. Amine coupling is a very common approach for immobilising the ligand to the chip surface. […] The capture antibody was diluted 1/100 in 10 mM Sodium acetate buffer pH 5.0 and passed over the activated chip surface for a period of at least 420 s. Final ligand immobilisation levels over 12,000 RU were deemed to be satisfactory.
hT40, sequence (P10636 1-441 isoform P10636-8): as above
Following immobilisation, the level of each scAb to be captured was identified using the standard SPR equation with a theoretical RMax of 100 RU. Analyte MW refers to the molecular weight of hT40 or dGA/dGAE molecules, while ligand MW refers to the molecular weight of the scAbs tested. RL is the desired capture level and S refers to the stoichiometric ratio:
The scAb to be tested was added only to flow cell 2 so that flow cell 1 could act as a control to subtract any interaction with the analyte and the chip surface. Both single and multi-cycle runs were utilised using wizards developed in the Biacore X100 control software which are both accepted methods of kinetic analysis (Karlsson, R., et al. Analyzing a kinetic titration series using affinity biosensors (2006) Analytical Biochemistry 349:136-47). The multi-cycle protocol was as follows-Three start-up cycles composed of an initial capture, to the desired level, of the scAb to be tested was performed followed by a 30 s injection of glycine buffer pH 2.0 after each cycle to regenerate the chip surface. […] Following three start-up cycles increasing concentrations (0.15625 nM-100 nM) of the target to be tested were added to the chip surface after the desired scAb capture. The target was added for a 120 s association period and 420 s dissociation period followed by another regeneration, 30 s injection of glycine buffer pH 2.0 in between each cycle.
The single cycle kinetics protocol was similar and utilised the same level of scAb capture. Three start-up cycles were used followed by 5 increasing concentrations of the analyte (6.25 nM-100 nM) for an association period of 120 s followed by a dissociation period of 420 s for each concentration. In single cycle kinetics the regeneration step was performed only after the final analyte concentration was added. Binding responses were analysed in Biacore X100 evaluation software and data fitted to a 1:1 binding model to obtain kinetic and affinity characterisation.
In general terms: Surface plasmon resonance follows binding to a sensor surface in real time, without labels.
Molecule B1 yielded a ka of 6.669e+06 M⁻¹ s⁻¹ and a kd of 0.05966 s⁻¹.

Turning to B2, the ka amounted to 2.757e+06 M⁻¹ s⁻¹ and the kd is 0.009868 s⁻¹.

In turn, B3 yielded a ka of 62940 M⁻¹ s⁻¹ and a kd of 0.0003869 s⁻¹.

B4 had a ka of 109300 M⁻¹ s⁻¹ and a kd of 0.01532 s⁻¹.

Turning to B5, the ka was found to be 19000 M⁻¹ s⁻¹ and the kd worked out at 0.0188 s⁻¹.

As to B6, the ka was 207200 M⁻¹ s⁻¹ and the kd stood at 0.01435 s⁻¹.

Still in this experiment, the particulars now being: scAb, Table 23, T441 (hT40).
On to B7, for which the ka turned out to be 174500 M⁻¹ s⁻¹ and the kd was 0.000662 s⁻¹.

The target of the next experiment is htau40 (Homo sapiens, UniProt P10636). The experiment is described as follows: Biacore X100 SPR of anti-tau mAbs on immobilised htau40. It counts as binding. The note with it: mAb, Table 27, immobilised hT40. As to the method:
For anti-tau mAb SPR measurements, htau40 was conjugated to the surface of a CM5 sensor chip using amine coupling as explained previously. Briefly, 2 μg/mL htau40 in 10 mM Sodium acetate buffer (pH 4.0) was passed over the activated chip surface (EDC/NHS) in flow cell 2 for a period for 45 s followed by blocking with 1 M ethanolamine-HCl PH 8.5. Flow cell 1 was set up as reference control and blocked simultaneously. Final immobilisation level of htau40 (Rmax) was approximately 250 RU. Following a minimum of three start-up cycles, increasing concentrations (0.78 nM-25 nM) of the mAb in HBS-EP+ buffer was added at a rate of 30 μL/min to the chip. The mAb was added for a 120 s association period and 600 s dissociation period followed by a regeneration cycle of 30 s injection of glycine buffer pH 1.5 in between each cycle. Binding responses were analysed in Biacore X100 evaluation software and data fitted to a 1:1 binding model to obtain kinetic and affinity characterisation.
For anti-tau mAb SPR measurements (Biacore X100™) and epitope mapping, the same methodologies described above (see Example 16) were followed. Kinetic rates and equilibrium binding constants of additional anti-tau mAbs and the regions recognised on hT40 are given in the Table 25 below
Regarding B7, the ka is 103000 M⁻¹ s⁻¹ and the kd stood at 0.001718 s⁻¹.

The experiment is the same for the next values; noted with them: newly converted mAbs, Table 25 (Example 28), hT40.
In the case of B1, the ka was 4.54e+06 M⁻¹ s⁻¹ and the kd is 0.0002964 s⁻¹.

B2 registered a ka of 3.128e+06 M⁻¹ s⁻¹ and a kd of 0.0001522 s⁻¹.

In turn, B3 yielded a ka of 1.532e+07 M⁻¹ s⁻¹ and a kd of 0.004751 s⁻¹.

In turn, B8 came in with a ka of 66200 M⁻¹ s⁻¹ and a kd of 0.001462 s⁻¹.

Take B9: the ka came out at 2.671e+06 M⁻¹ s⁻¹ and the kd was 0.003979 s⁻¹.

Still in this experiment, the particulars now being: newly converted mAbs, Table 25 (Example 28); read-out: kD (M) for hT40 binding.
In the case of B2, the Kd is 4.9e-11 M.

As usually defined, the Kd is the concentration at which binding is half-saturated.
